A short description of the series: yeast display, Sf9 membrane polyspecificity reagent, FACS + sequencing; frameworks hold sequencing errors. In short, it runs like this: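 A synthetic nanobody library was expressed on Saccharomyces cerevisiae BJ5465 by galactose induction for 36–48 hours. The library was stained for 1 hour at 4 °C with 10% biotinylated, detergent-solubilized Sf9 membrane reagent and enriched with streptavidin microbeads before FACS. Low and high (top ~1%) gates were set on anti-HA fluorescence for expression and streptavidin fluorescence for reagent binding, and each polyreactivity label reflects the gate of origin.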
Regarding “QVQLVESAGGLVQAGGILRLSCAASGSIFVGYDMGWSRQAPGKERELVAAITSSGGGSTYYADSVKGRFTISRDNAKNTVYLQMNSLKPEDTAVYYCAARTSLWWFLKYDYWGQGTQVTVSS”, the “polyreactivity (PSR sort gate)” value was “low polyreactivity”.
In the case of “QVQLVESAGGLVQAGGRLRLSCAASGFTFVYYVMGWYRQAPGKERELVAAISNSGGSTYYADSVKGRFTISRDNAKNSVYLEMNSLKPEDTAVYYCAAPPGGGKYRGYYYWGQGTQVTVSS” it was “high polyreactivity”.
As for “QVQLVESAGGLVQAGGRLRLSCAASGITISYYAMGWYRQAPGKERELVASISWRGGGTYYADSVKGRFTISRDNAKNTVYLQMNSVKPEDTAVYYCAADEKLYITRYDYWGQGTQVTVSS”, the “polyreactivity (PSR sort gate)” value is given as “low polyreactivity”.
With “QVQLVESAGGLVQAGGRLRLSCAASGRTFTYYAMGWYRQAPGKERELVAAISFSGGRTYYADSVKGRFTISRDYAKNTVYLQMNSLKPEDTAVYYCAAENYYTRYRDRDYWGQGTQVTVSS” the entry was “high polyreactivity”.
In the case of “QVQLVESAGGLVQAGGRLRVSCAASGFIFLYYPMGWYRKAPGKEREFVAAISWSDGNTYYADSVKGRFTISRDTAKNTDYLQMNSLKREDTAVYYCNARDADAWASGYDYWGQGTQLTVSS” it was “low polyreactivity”; in that of “QVQLVESAGGLVQAGGSHRLSCAASASIFDGYAMGWYRQAPGKEREVVAAIRRSGVDTYYADSVKGRFTISRDNAKTTVYLQMNSLKPEDTAVDYCAADSYPSPNFEDNYWRQGTQVTVSS”, “low polyreactivity”.
With “QVQLVESAGGLVQAGGSHRLSCAPSGRIFGGNAMGWYRRAPGKERELVAGISRRGGSTYYADSVKGRFTITRDNAKNTVHLQMNSLKPEDTAVYYCNAYYRYSVFAEKYDYWGEGTQVTVSS” the entry was “high polyreactivity”; with “QVQLVESAGGLVQAGGSLRIRCAASVSTFGVYALGWYRQAPGKERELVAAISSSTGSTYYADSVKGRFTISRDNAKNTVYLQMNSLKPEDTGVYYCAAAGYGKVRGDYWGLGTQVTVSS”, “low polyreactivity”; with “QVQLVESAGGLVQAGGSLRISCAASGSIFYYYAMGWYRQAPGKERELLAAIDSGGSTYYADSVKGRFTISRDNAKNTVYLQMNSLKPEDTAVYYCAADTYWFVYYGYDYWGQGTQVTVSS”, “low polyreactivity”.
On to “QVQLVESAGGLVQAGGSLRLMCAASGNTLSWYALGWYRQAPGKERELVAVITSGGSTNYADSVKGRFTISRDYAKNTVYLQMNSLKPEDTAVYYCNRRPYGFDEFDYWGQGTQVTVSS”, for which the “polyreactivity (PSR sort gate)” value was “low polyreactivity”.
With “QVQLVESAGGLVQAGGSLRLSCAASAFTFFDYVMGWYRQAPGKERELVAAISRNVGSTYYADSVKGRFTISRDNAKNTVYLQMNSLKPEDTAVYYCAGEPPPYEYDYWGQGTQVTVSS” the entry was “high polyreactivity”; with “QVQLVESAGGLVQAGGSLRLSCAASAFTFRWYDMGWYRQAPGKERELVAAIDASDGSTYYSDSVKGSFTISRDNPKNTVYLPMNSLKPEDTAVYYCATRLRGGGKGYYYWGQGTQVTVSS”, “high polyreactivity”.
As to “QVQLVESAGGLVQAGGSLRLSCAASGFIFVRNAMGWYRPAPGKVRELVAAISRSGGRTYNADSVKGRFTISRDNAKNTVYLQMNSLKPEDTAVYYCAARSGYFRSRFDYWGQGTQVTVSS”, the “polyreactivity (PSR sort gate)” value is “high polyreactivity”.
For “QVQLVESAGGLVQAGGSLRLSCAASGFTFKSNAMGWYRQAPGKEREMVAAIDSRGDRTYYADSVKGRFTISRDNAKNTVYLQMNSLKPEDTAVYYCATKWRTYWSSGEYWGQGTQVTVSS”, the “polyreactivity (PSR sort gate)” value was “high polyreactivity”.
With “QVQLVESAGGLVQAGGSLRLSCAASGFTFLYYAMGWYRKAPGKEREFVAAISYTGGSTYYADSVKGRFTISRDNAKNTVYLQMNSLKPEDTAVYYCAVDGYYWFGSIFDYWGQGTQVTVSS” the entry was “low polyreactivity”.
With “QVQLVESAGGLVQAGGSLRLSCAASGITFAWYAMGWYRQAPGKERELVAAITRGGGSTYYADSVKGRFTISRDNAKNTVYLQMNSLKPEATAVYYCAARPYSYPYGYWGQGTQVTVSS” the entry was “low polyreactivity”; with “QVQLVESAGGLVQAGGSLRLSCAASGITFKYNAMGWYRQAPGKERELVAAISKGGGSTYYADSVKGRFTISRDNAKNTVYLQMNSLKPEDTAVYYCAARRWYRFDYWGQGTQVTVSS”, “high polyreactivity”; with “QVQLVESAGGLVQAGGSLRLSCAASGITFSYYTMGWYRQAPGKEREFVATIRRGGSTNYADSVKGRFTISRDNAKNTVYLQMNSLKPEDTAVYYCAADLRRNGWGFDYWGQGTQVTVSS”, “high polyreactivity”.
With “QVQLVESAGGLVQAGGSLRLSCAASGITFYEYVMGWYRQAPGKERELVASIDWSGGGTYYADSVKGRFTISRDNAKNTVYLQMNSLKPEDTAVYYCNADYFDYSRPRYDYWGQGTQVTVSS” the entry was “low polyreactivity”; with “QVQLVESAGGLVQAGGSLRLSCAASGITHHHNAIGWSRQAPRKERELVAAITSNGGSTYYAVSVKGRFTISRDHAKNSVYLQINSLKPEDTAVYYCARDSKRLARYYYWGQGTQVTVSS”, “low polyreactivity”.
Take “QVQLVESAGGLVQAGGSLRLSCAASGLTFTGNAIGWYRQAPGKERQCVAAIRWSAGSTYYADSVKGRVTISRDNAKNTVYLQMNSLKPEDTAVYYCNAALNVSGHYPNDYWGQGTQVTVSS”: the “polyreactivity (PSR sort gate)” value is given as “low polyreactivity”.
With “QVQLVESAGGLVQAGGSLRLSCAASGMILWRYSMGWYRKAPGKEMEFVAAISYRAGSTYYADSVKGRFTISRDNAKNTVYLQMNSLKPEDTAVYYCAAGLKRFGSYPWLKSGMGYWGQGTQVTVSS” the entry was “high polyreactivity”; with “QVQLVESAGGLVQAGGSLRLSCAASGNTFANYAMGWDRQAPGKERELVAAITRGGSTFYADSVKGRFTISRDNAKNTVYLQMNSLKPEDSAVYYCAKGYGTNTRYYHRYRYDYWGQGTQVTVSS”, “high polyreactivity”; with “QVQLVESAGGLVQAGGSLRLSCAASGNTFWFYGMGWYRPAPGKVRELVAAITSGGSTDYPDSVKGRCTISRDNAKNTVYLQMNSLKPEDTALYYCAAEPVAYYGSSYGYWGQGTQVTVSS”, “low polyreactivity”.
Take “QVQLVESAGGLVQAGGSLRLSCAASGRIFKFYTMGWYRQAPGKERELVAAISSSDGSTHYADSVKGRFTISRDNAKNTVYLQMNSLKPEDTAVYYCAAQGGRNRGYRYYWGQGTQVTVSS”: the “polyreactivity (PSR sort gate)” value is “high polyreactivity”.
Regarding “QVQLVESAGGLVQAGGSLRLSCAASGRIFLYNAMGWYRQAPGKERELVAVISSNGGRTYYADSVKGRFTISRDNAKNTVYLQMNSLKPEDTAVYYCAAVQHYVTHMDYWGQGTQVTVSS”, the “polyreactivity (PSR sort gate)” value is given as “low polyreactivity”.
In the case of “QVQLVESAGGLVQAGGSLRLSCAASGRIFRSNAMGWYRQAPGQERELVAAINNRDTSTYADSVKGRFTISRDNAKNTVYLQMNSLKPEDTAVFYCAARYQYYSTYGVTLDYWGQGSQVTVSS” it was “low polyreactivity”; in that of “QVQLVESAGGLVQAGGSLRLSCAASGRIFSRYAMGWYRQAPGKERELVAAITQSGTSTYYADSVKGRFTISRDNAKNTVYLQMNSLKPEDTAVYYCNAYRQYRYDYWGQGTQVTVSS”, “low polyreactivity”.
In the case of “QVQLVESAGGLVQAGGSLRLSCAASGRIFVTNAMGLYRQAPGKEREFVAGISFSGDGRTYYADSVKGRFTISRDYAKNSVYFQMNSLKPEDTAVYYCAAPHRSRTHELDYWGLGTQVTVSS” it was “low polyreactivity”; in that of “QVQLVESAGGLVQAGGSLRLSCAASGRNFYYYAMGWYRQAPGKERELVAAISIGGITYADSVKGRFTISRDNAKNTVYLQMNRLKPEDTAVYYCAATARQSRGRYYWGQGTQVTVSS”, “low polyreactivity”.
With “QVQLVESAGGLVQAGGSLRLSCAASGRTFFRNAMGWYRQAPGKERELVAGITASGGNTYYADSVKGRFTISRDNAKNTVYLQMNSLKPEDTAVYFCNAVYSLARITRAGYGYWGQGPQVTVSS” the entry was “high polyreactivity”; with “QVQLVESAGGLVQAGGSLRLSCAASGRTFGRKAMVWSRQAPGERELGAVISRGGSTYYADTVKGRFTISRDNAKNTVYLQMNILKPEDTAVYYCNADTVYTRTGPYDYWGQGTQVTVSS”, “low polyreactivity”; with “QVQLVESAGGLVQAGGSLRLSCAASGRTFRTYAMGWYRPAPVKERELVAAITSGGNTYYADSVKGRFTISRDNAKNTVYLQMNSLKPEDTAVYYCAAVQYFKVYYWGQGTQVTVSS”, “high polyreactivity”.
“QVQLVESAGGLVQAGGSLRLSCAASGRTLSNYAMGWYREAPGKERELVAVISQSGGRTYYADSVKGRFTISRDNAKNTVYLQLNSLKPEDTAVYYCNVDISWLRRKFDYWGQVTQVTVSS”: the “polyreactivity (PSR sort gate)” value was “low polyreactivity”.
With “QVQLVESAGGLVQAGGSLRLSCAASGSIFDAYAMGWYRQAPGKERELVAAIIARGGSTYYADSVKGRFTISRDNAKTTVYLQMISLKPEDTAVSYCNRLSRVRRYIYDYWGQGTQVTVSS”, the “polyreactivity (PSR sort gate)” value is “high polyreactivity”.
With “QVQLVESAGGLVQAGGSLRLSCAASGSIFTYYAMGWYIQAPGKERELVAAISSDGGRTFYADSVKGRFTISRDNAKNTVYLQMNSLKPEDTAVYYCAAETNRFPGYGYWGQGTQVTVSS” the entry was “low polyreactivity”; with “QVQLVESAGGLVQAGGSLRLSCAASGSISAGNAMGWNRQAPGKERELVAAISGSGGSTYYADSVKGRFTISRYNAKNSVDLQMKSLKPEDTAVYYCAARGGYRLRYIPYVRYDYWGEGTQVTVSS”, “high polyreactivity”; with “QVQLVESAGGLVQAGGSLRLSCAASGSTFGPYAMGWYRQVPGKERELVAGISYGGGTTFYADSVKGRFTISRDNAKYTVYLQMNSLKPEDTAVYYCAATYRPNRYLEGYWGQGTQVTVSS”, “high polyreactivity”.
With “QVQLVESAGGLVQAGGSLRLSCAASGSTFLSYFMGWYRQAPGKERELVAAITGTGGRTYYADSVKGRFTISRDNAKNTVYLQMNSLKPEDSAVYYCTAYRKHGYDYWGQGTQVTVSS” the entry was “high polyreactivity”; with “QVQLVESAGGLVQAGGSLRLSCAASGSTFRLNTMGWYRQEPGNERELVAGISYSGGSTYYADSVNGRFTISRDNAKNTVYLQMNSLKPEDTAVYYCNKRAWFSSKDDYWGQGTQVTVSS”, “high polyreactivity”.
For “QVQLVESAGGLVQAGGSLRLSCAASGSTFVTNVMGWYRQAPGKERELVAAISYSGGNTYFEDSVKGRFTISRDYAKNTVYLQMNSLKPEDTAVYSCAASYKPFKKMGYWGQGTQVTVSS”, the “polyreactivity (PSR sort gate)” value is given as “high polyreactivity”.

The values above are taken from the nanobody polyreactivity screen of Harvey et al. (2022).
